The target of assay [1] is linker-deletion ClpX^ΔN single-chain pseudohexamer (E. coli) (UniProt P0A6H1).
The target in assay [2] is G12-insertion ClpX^ΔN single-chain pseudohexamer (E. coli) (UniProt P0A6H1).
Assay [3] deals with wild-type single-chain ClpX^ΔN pseudohexamer (E. coli) (UniProt P0A6H1).

For the substance Arc-st11-ssrA, the KM of Arc-st11-ssrA degradation (0.1 μM ClpX, 0.3 μM ClpP); approximate in assay [1] came to 20 µM. For the same substance, the KM of Arc-st11-ssrA degradation (0.1 μM ClpX, 0.3 μM ClpP) stood at 4.1 µM in assay [2] and 2.5 µM in assay [3].

The record behind these values is publication PMC7091491.
